B1: Prelamin-A/C (Homo sapiens), P02545 (parent)
chain: METPSQRRATRSGAQASSTPLSPTRITRLQEKEDLQELNDRLAVYIDRVRSLETENAGLRLRITESEEVVSREVSGIKAAYEAELGDARKTLDSVAKERARLQLELSKVREEFKELKARNTKKEGDLIAAQARLKDLEALLNSKEAALSTALSEKRTLEGELHDLRGQVAKLEAALGEAKKQLQDEMLRRVDAENRLQTMKEELDFQKNIYSEELRETKRRHETRLVEIDNGKQREFESRLADALQELRAQHEDQVEQYKKELEKTYSAKLDNARQSAERNSNLVGAAHEELQQSRIRIDSLSAQLSQLQKQLAAKEAKLRDLEDSLARERDTSRRLLAEKEREMAEMRARMQQQLDEYQELLDIKLALDMEIHAYRKLLEGEEERLRLSPSPTSQRSRGRASSHSSQTQGGGSVTKKRKLESTESRSSFSQHARTSGRVAVEEVDEEGKFVRLRNKSNEDQSMGNWQIKRQNGDDPLLTYRFPPKFTLKAGQVVTIWAAGAGATHSPPTDLVWKAQNTWGCGNSLRTALINSTGEEVAMRKLVRSVTVVEDDEDEDGDDLLHHHHGSHCSSSGDPAEYNLRSRTVLCGTCGQPADKASASGSGAQVGGPISSGSSASSVTVTRSYRSVGGSGGGSFGDNLVTRSYLLGNSSPRTQSPQNCSIM
partner: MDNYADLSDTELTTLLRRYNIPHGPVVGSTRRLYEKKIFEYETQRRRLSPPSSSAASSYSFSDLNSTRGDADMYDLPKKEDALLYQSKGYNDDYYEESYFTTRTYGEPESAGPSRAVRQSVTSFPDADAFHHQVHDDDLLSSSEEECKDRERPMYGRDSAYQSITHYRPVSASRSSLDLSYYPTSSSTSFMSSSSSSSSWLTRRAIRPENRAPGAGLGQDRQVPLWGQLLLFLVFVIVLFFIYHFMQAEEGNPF

Variants of: B1
Conditions: with emd_human EMD

| Variant | effect of a mutation on the interaction |
| --- | --- |
| R482L | decreasing interaction strength |

Reference: IntAct's records for PubMed 14597414
